Measured values from patent US20140087995A1 (published 2014).
Numbered stars: 1 amine (or outer) side, 2 acyl side, 3 side chain; on linkers, the order of the positions; unused ones are H or OH. Bridge positions count the residues as written; N and C are the ends. * marks the point of attachment. C20 diacid = O=C(O)CCCCCCCCCCCCCCCCCCC(=O)*; γGlu = O=C(O)[C@H](CCC(=O)[*:2])N[*:1]

T1: human calcitonin receptor (human, UniProt P30988 25-474)
T1 sequence (looked up): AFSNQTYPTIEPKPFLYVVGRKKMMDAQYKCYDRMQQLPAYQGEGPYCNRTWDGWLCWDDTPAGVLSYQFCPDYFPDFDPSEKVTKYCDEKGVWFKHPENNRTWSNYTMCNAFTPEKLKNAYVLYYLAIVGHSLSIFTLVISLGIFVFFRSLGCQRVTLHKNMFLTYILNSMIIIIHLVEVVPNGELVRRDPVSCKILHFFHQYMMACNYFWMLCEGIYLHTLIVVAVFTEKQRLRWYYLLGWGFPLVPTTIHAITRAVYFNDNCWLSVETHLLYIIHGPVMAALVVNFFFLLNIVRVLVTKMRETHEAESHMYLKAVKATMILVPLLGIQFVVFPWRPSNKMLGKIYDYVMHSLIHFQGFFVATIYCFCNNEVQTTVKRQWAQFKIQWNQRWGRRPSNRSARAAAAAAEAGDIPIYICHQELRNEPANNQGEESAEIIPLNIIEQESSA

T2: human amylin receptor (amylin 3(a) receptor: human calcitonin receptor plus RAMP-3) (human, UniProt P30988 25-474; O60896 24-148, limits assumed)
T2 sequence (looked up) 1: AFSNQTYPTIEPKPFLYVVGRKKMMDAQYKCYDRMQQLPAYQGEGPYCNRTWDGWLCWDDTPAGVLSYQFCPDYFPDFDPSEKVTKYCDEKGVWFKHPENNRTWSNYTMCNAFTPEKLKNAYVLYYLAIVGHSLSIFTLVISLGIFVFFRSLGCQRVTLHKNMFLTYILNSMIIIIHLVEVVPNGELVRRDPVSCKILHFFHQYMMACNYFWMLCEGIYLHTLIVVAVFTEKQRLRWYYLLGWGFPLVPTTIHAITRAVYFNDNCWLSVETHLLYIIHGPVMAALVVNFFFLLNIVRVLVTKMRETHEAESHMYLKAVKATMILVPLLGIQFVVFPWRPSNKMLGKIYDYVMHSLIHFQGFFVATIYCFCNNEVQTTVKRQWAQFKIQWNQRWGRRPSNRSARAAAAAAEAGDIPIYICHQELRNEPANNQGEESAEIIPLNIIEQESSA
T2 sequence (looked up) 2: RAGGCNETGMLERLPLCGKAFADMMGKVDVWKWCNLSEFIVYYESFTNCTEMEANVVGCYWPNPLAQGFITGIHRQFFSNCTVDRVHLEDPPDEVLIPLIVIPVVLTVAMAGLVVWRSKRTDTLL


Key:
[1] = molecular target: T1, human calcitonin receptor; experiment: cell-based or functional assay
[2] = molecular target: T2, human amylin receptor (amylin 3(a) …); experiment: cell-based or functional assay
[3] = molecular target: T2, human amylin receptor (amylin 3(a) …); experiment: SPA competition binding, membranes of Amylin 3(a)/CRE-luc BHK cells, displacement of 125I-rat amylin (Assay V)
Procedure: The binding assay was performed using scintillation proximity assay (SPA) beads (RPNQ0001) from PerkinElmer and cell membranes from the Amylin 3(a)/CRE-luc cells (as described in Assay (II)) were used. Membranes were prepared in the following way; the cells were rinsed with PBS and incubated with Versene for approximately 5 min before harvesting. The cells were flushed with PBS and the cell-suspension was centrifuged for 5 min at 1000 rpm. Cells were homogenized (ultrathurrax) in a buffer containing 20 mM Na-HEPES and 10 mM EDTA (pH 7.4) and centrifuged at 20.000 rpm for 15 min. The resulting pellet was resuspended, homogenized and centrifuged (20.000 rpm, 15 min) in a buffer containing 20 mM Na-HEPES and 0.1 mM EDTA (pH 7.4, buffer 2). The resulting pellet was resuspended in buffer 2 and protein concentration was measured (BCA protein Assay, Pierce). The homogenate was kept cold during the whole procedure. The membranes were kept at −80° C. until use. The assay was performed in a 384 well Optiplate (PerkinElmer) in a total volume of 40 ul. Membranes were mixed with SPA beads. Final concentration of membranes 35 ng/μL final and SPA beads was 0.05 mg/well. Test-compounds were dissolved in DMSO and further diluted in assay buffer (50 mM Hepes, pH 7.4, 1 mM CaCl2, 5 mM MgCl₂, 0.1% OA and 0.02% Tween20). […] The final mixture was incubated with shaking at 400 rpm for 120 min at 25° C. prior to centrifugation (1500 rpm, 10 min). Samples were analyzed on TopCounter™ (Packard). The IC₅₀ was calculated using (one site binding competition analysis) GraphPad Prism5 as a measure of receptor affinity.

Binder | Ratio hCT/hAmylin funct. (hCTR EC50 against hAmylin-R EC50) [1] | hCTR funct. EC50 [1] [nM] | hAmylin-R funct. EC50 [2] [nM] | IC50 [3] [nM]
{C20 diacid-γGlu}-KCNTATCATQRLADFLRHSSPNFGAIPSSTNVGSNTP-NH2 (disulfide 2-7; SMILES CC[C@H](C)[C@H](NC(=O)[C@H](C)NC(=O)CNC(=O)[C@H](Cc1ccccc1)NC(=O)[C@H](CC(N)=O)NC(=O)[C@@H]1CCCN1C(=O)[C@H](CO)NC(=O)[C@H](CO)NC(=O)[C@H](Cc1c[nH]cn1)NC(=O)[C@H](CCCNC(=N)N)NC(=O)[C@H](CC(C)C)NC(=O)[C@H](Cc1ccccc1)NC(=O)[C@H](CC(=O)O)NC(=O)[C@H](C)NC(=O)[C@H](CC(C)C)NC(=O)[C@H](CCCNC(=N)N)NC(=O)[C@H](CCC(N)=O)NC(=O)[C@@H](NC(=O)[C@H](C)NC(=O)[C@@H]1CSSC[C@H](NC(=O)[C@H](CCCCN)NC(=O)CC[C@H](NC(=O)CCCCCCCCCCCCCCCCCCC(=O)O)C(=O)O)C(=O)N[C@@H](CC(N)=O)C(=O)N[C@@H]([C@@H](C)O)C(=O)N[C@@H](C)C(=O)N[C@@H]([C@@H](C)O)C(=O)N1)[C@@H](C)O)C(=O)N1CCC[C@H]1C(=O)N[C@@H](CO)C(=O)N[C@@H](CO)C(=O)N[C@H](C(=O)N[C@@H](CC(N)=O)C(=O)N[C@H](C(=O)NCC(=O)N[C@@H](CO)C(=O)N[C@@H](CC(N)=O)C(=O)N[C@H](C(=O)N1CCC[C@H]1C(N)=O)[C@@H](C)O)C(C)C)[C@@H](C)O, also called compound 10) | 1 | 0.07 | 0.072 | 0.082
{C20 diacid-γGlu}-KCNTATCATQRLAEFLRHSSPNFGAIPSSTNVGSDTP-NH2 (disulfide 2-7; SMILES CC[C@H](C)[C@H](NC(=O)[C@H](C)NC(=O)CNC(=O)[C@H](Cc1ccccc1)NC(=O)[C@H](CC(N)=O)NC(=O)[C@@H]1CCCN1C(=O)[C@H](CO)NC(=O)[C@H](CO)NC(=O)[C@H](Cc1c[nH]cn1)NC(=O)[C@H](CCCNC(=N)N)NC(=O)[C@H](CC(C)C)NC(=O)[C@H](Cc1ccccc1)NC(=O)[C@H](CCC(=O)O)NC(=O)[C@H](C)NC(=O)[C@H](CC(C)C)NC(=O)[C@H](CCCNC(=N)N)NC(=O)[C@H](CCC(N)=O)NC(=O)[C@@H](NC(=O)[C@H](C)NC(=O)[C@@H]1CSSC[C@H](NC(=O)[C@H](CCCCN)NC(=O)CC[C@H](NC(=O)CCCCCCCCCCCCCCCCCCC(=O)O)C(=O)O)C(=O)N[C@@H](CC(N)=O)C(=O)N[C@@H]([C@@H](C)O)C(=O)N[C@@H](C)C(=O)N[C@@H]([C@@H](C)O)C(=O)N1)[C@@H](C)O)C(=O)N1CCC[C@H]1C(=O)N[C@@H](CO)C(=O)N[C@@H](CO)C(=O)N[C@H](C(=O)N[C@@H](CC(N)=O)C(=O)N[C@H](C(=O)NCC(=O)N[C@@H](CO)C(=O)N[C@@H](CC(=O)O)C(=O)N[C@H](C(=O)N1CCC[C@H]1C(N)=O)[C@@H](C)O)C(C)C)[C@@H](C)O, also called compound 11) | 0.9 | 0.112 | 0.12 | 0.105
{C20 diacid-γGlu}-KCNTATCATQRLAEFLRHSSPNFGAIPSSTNVGHNTY-NH2 (disulfide 2-7; SMILES CC[C@H](C)[C@H](NC(=O)[C@H](C)NC(=O)CNC(=O)[C@H](Cc1ccccc1)NC(=O)[C@H](CC(N)=O)NC(=O)[C@@H]1CCCN1C(=O)[C@H](CO)NC(=O)[C@H](CO)NC(=O)[C@H](Cc1c[nH]cn1)NC(=O)[C@H](CCCNC(=N)N)NC(=O)[C@H](CC(C)C)NC(=O)[C@H](Cc1ccccc1)NC(=O)[C@H](CCC(=O)O)NC(=O)[C@H](C)NC(=O)[C@H](CC(C)C)NC(=O)[C@H](CCCNC(=N)N)NC(=O)[C@H](CCC(N)=O)NC(=O)[C@@H](NC(=O)[C@H](C)NC(=O)[C@@H]1CSSC[C@H](NC(=O)[C@H](CCCCN)NC(=O)CC[C@H](NC(=O)CCCCCCCCCCCCCCCCCCC(=O)O)C(=O)O)C(=O)N[C@@H](CC(N)=O)C(=O)N[C@@H]([C@@H](C)O)C(=O)N[C@@H](C)C(=O)N[C@@H]([C@@H](C)O)C(=O)N1)[C@@H](C)O)C(=O)N1CCC[C@H]1C(=O)N[C@@H](CO)C(=O)N[C@@H](CO)C(=O)N[C@H](C(=O)N[C@@H](CC(N)=O)C(=O)N[C@H](C(=O)NCC(=O)N[C@@H](Cc1c[nH]cn1)C(=O)N[C@@H](CC(N)=O)C(=O)N[C@H](C(=O)N[C@@H](Cc1ccc(O)cc1)C(N)=O)[C@@H](C)O)C(C)C)[C@@H](C)O, also called compound 17) | 8.8 | 2.35 | 0.268 | 0.878
{C20 diacid-γGlu}-KCNTATCATQRLAEFLRHSSPNFGAIPSSTNVGSHTY-NH2 (disulfide 2-7; SMILES CC[C@H](C)[C@H](NC(=O)[C@H](C)NC(=O)CNC(=O)[C@H](Cc1ccccc1)NC(=O)[C@H](CC(N)=O)NC(=O)[C@@H]1CCCN1C(=O)[C@H](CO)NC(=O)[C@H](CO)NC(=O)[C@H](Cc1c[nH]cn1)NC(=O)[C@H](CCCNC(=N)N)NC(=O)[C@H](CC(C)C)NC(=O)[C@H](Cc1ccccc1)NC(=O)[C@H](CCC(=O)O)NC(=O)[C@H](C)NC(=O)[C@H](CC(C)C)NC(=O)[C@H](CCCNC(=N)N)NC(=O)[C@H](CCC(N)=O)NC(=O)[C@@H](NC(=O)[C@H](C)NC(=O)[C@@H]1CSSC[C@H](NC(=O)[C@H](CCCCN)NC(=O)CC[C@H](NC(=O)CCCCCCCCCCCCCCCCCCC(=O)O)C(=O)O)C(=O)N[C@@H](CC(N)=O)C(=O)N[C@@H]([C@@H](C)O)C(=O)N[C@@H](C)C(=O)N[C@@H]([C@@H](C)O)C(=O)N1)[C@@H](C)O)C(=O)N1CCC[C@H]1C(=O)N[C@@H](CO)C(=O)N[C@@H](CO)C(=O)N[C@H](C(=O)N[C@@H](CC(N)=O)C(=O)N[C@H](C(=O)NCC(=O)N[C@@H](CO)C(=O)N[C@@H](Cc1c[nH]cn1)C(=O)N[C@H](C(=O)N[C@@H](Cc1ccc(O)cc1)C(N)=O)[C@@H](C)O)C(C)C)[C@@H](C)O, also called compound 18) | 4.8 | 0.742 | 0.154 | 0.554
{C20 diacid-γGlu}-KCNTATCATQRLAEFLRHSSPNFGAIPSPTNVGSNTY-NH2 (disulfide 2-7; SMILES CC[C@H](C)[C@H](NC(=O)[C@H](C)NC(=O)CNC(=O)[C@H](Cc1ccccc1)NC(=O)[C@H](CC(N)=O)NC(=O)[C@@H]1CCCN1C(=O)[C@H](CO)NC(=O)[C@H](CO)NC(=O)[C@H](Cc1c[nH]cn1)NC(=O)[C@H](CCCNC(=N)N)NC(=O)[C@H](CC(C)C)NC(=O)[C@H](Cc1ccccc1)NC(=O)[C@H](CCC(=O)O)NC(=O)[C@H](C)NC(=O)[C@H](CC(C)C)NC(=O)[C@H](CCCNC(=N)N)NC(=O)[C@H](CCC(N)=O)NC(=O)[C@@H](NC(=O)[C@H](C)NC(=O)[C@@H]1CSSC[C@H](NC(=O)[C@H](CCCCN)NC(=O)CC[C@H](NC(=O)CCCCCCCCCCCCCCCCCCC(=O)O)C(=O)O)C(=O)N[C@@H](CC(N)=O)C(=O)N[C@@H]([C@@H](C)O)C(=O)N[C@@H](C)C(=O)N[C@@H]([C@@H](C)O)C(=O)N1)[C@@H](C)O)C(=O)N1CCC[C@H]1C(=O)N[C@@H](CO)C(=O)N1CCC[C@H]1C(=O)N[C@H](C(=O)N[C@@H](CC(N)=O)C(=O)N[C@H](C(=O)NCC(=O)N[C@@H](CO)C(=O)N[C@@H](CC(N)=O)C(=O)N[C@H](C(=O)N[C@@H](Cc1ccc(O)cc1)C(N)=O)[C@@H](C)O)C(C)C)[C@@H](C)O, also called compound 37) | 4 | 0.372 | 0.092 | 0.97
